Laboratory results published in patent US20070077239.

Biological target: bovine serum albumin, P02769
Sequence (P02769 25-607): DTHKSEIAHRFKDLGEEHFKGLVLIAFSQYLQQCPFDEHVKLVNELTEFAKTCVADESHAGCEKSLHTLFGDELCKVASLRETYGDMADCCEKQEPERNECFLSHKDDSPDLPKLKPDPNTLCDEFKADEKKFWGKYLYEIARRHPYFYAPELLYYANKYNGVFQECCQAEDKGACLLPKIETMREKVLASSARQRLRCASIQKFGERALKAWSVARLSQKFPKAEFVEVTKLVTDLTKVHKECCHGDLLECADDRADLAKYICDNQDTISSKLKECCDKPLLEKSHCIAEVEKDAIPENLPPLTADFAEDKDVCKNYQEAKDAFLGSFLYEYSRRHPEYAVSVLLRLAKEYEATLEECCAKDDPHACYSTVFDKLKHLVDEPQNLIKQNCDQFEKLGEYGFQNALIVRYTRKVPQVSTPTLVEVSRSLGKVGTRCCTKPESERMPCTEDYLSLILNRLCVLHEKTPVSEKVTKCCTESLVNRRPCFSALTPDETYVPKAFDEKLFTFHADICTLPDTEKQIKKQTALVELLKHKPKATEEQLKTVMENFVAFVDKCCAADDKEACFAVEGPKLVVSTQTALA

B1: MPO purified from human PMNs (protein)
chain 1: not shown
chain 2: VNCETSCVQQPPCFPLKIPPNDPRIKNQADCIPFFRSCPACPGSNITIRNQINALTSFVDASMVYGSEEPLARNLRNMSNQLGLLAVNQRFQDNGRALLPFDNLHDDPCLLTNRSARIPCFLAGDTRSSEMPELTSMHTLLLREHNRLATELKSLNPRWDGERLYQEARKIVGAMVQIITYRDYLPLVLGPTAMRKYLPTYRSYNDSVDPRIANVFTNAFRYGHTLIQPFMFRLDNRYQPMEPNPRVPLSRVFFASWRVVLEGGIDPILRGLMATPAKLNRQNQIAVDEIRERLFEQVMRIGLDLPALNMQRSRDHGLPGYNAWRRFCGLPQPETVGQLGTVLRNLKLARKLMEQYGTPNNIDIWMGGVSEPLKRKGRVGPLLACIIGTQFRKLRDGDRFWWENEGVFSMQQRQALAQISLPRIICDNTGITTVSKNNIFMSNSYPRDFVNCSTLPALNLASWREAS
endocytosis of MPO in BLMVEC (confocal microscopy): in the presence of albumin, MPO staining was markedly co-localized with albumin-containing vesicles | transendothelial 125I-MPO permeability (BLMVEC on Transwell filters): increased more than 2-fold in the presence of albumin, as compared to γ-globulin
